Data: US20190092852A1 (Genentech, published 2019)

T1: biotinylated human IL-33 (human, UniProt O95760 112-270, biotin-labeled with EZ-LINK NHS-PEG4-Biotin)
T1 construct: also called biotin-huIL-33
T1 sequence (looked up): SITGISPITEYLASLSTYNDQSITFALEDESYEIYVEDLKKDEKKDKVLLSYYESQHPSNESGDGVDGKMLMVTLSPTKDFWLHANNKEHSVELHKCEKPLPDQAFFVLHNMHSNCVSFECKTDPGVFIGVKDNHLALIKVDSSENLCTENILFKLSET

T2: human IL-33 (R&D Systems, #3625-IL-010/CF) (human, UniProt O95760 112-270)
T2 sequence (looked up): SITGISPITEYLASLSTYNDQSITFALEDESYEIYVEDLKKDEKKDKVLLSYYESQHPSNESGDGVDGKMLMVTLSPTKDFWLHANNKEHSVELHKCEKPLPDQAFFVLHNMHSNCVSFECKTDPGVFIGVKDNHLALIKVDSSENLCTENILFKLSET

T3: cyno IL-33 N-His (cynomolgus monkey)
T3 chain: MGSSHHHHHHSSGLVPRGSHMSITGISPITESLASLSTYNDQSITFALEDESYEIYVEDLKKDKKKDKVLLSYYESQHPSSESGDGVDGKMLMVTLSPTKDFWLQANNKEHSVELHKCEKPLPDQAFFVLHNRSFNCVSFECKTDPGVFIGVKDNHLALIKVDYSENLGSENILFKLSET


What was measured:
[1] = target: T1, biotinylated human IL-33; test: competitive ELISA, biotin-huIL-33 to coated hST2-Fc
Procedure: The ability of the anti-IL-33 antibody 10C12.38.H6.87Y.58I IgG4 and each anti-IL-33 antibody listed in Table 5 (RG1-RG20) to block either human IL-33 or cyno IL-33 binding to human ST2 receptor was tested in a competitive binding ELISA. Briefly, 1 μg/ml of recombinant human ST2-Fc chimera protein prepared in coating buffer (50 mM sodium carbonate, pH 9.6) was coated on a 384-well MAXISORP® plate (Nalgene Nunc International; Rochester, N.Y.) and incubated overnight at 4° C. On the next day, non-specific binding was blocked with PBS containing 0.5% (w/v) solution of bovine serum albumin (BSA). Fixed concentrations of biotinylated human or cyno IL-33 prepared in assay buffer (25 mM PBS, pH 7.2, 0.1% BSA, 0.05% TWEEN®-20) were mixed with an equal volume of serially-diluted anti-IL-33 antibodies or assay buffer alone and incubated for 1 h at room temperature. The final assay concentrations of biotinylated human IL-33 or cyno IL-33 were 20 pM and 45 pM, respectively, and the final assay concentration of each antibody ranged from 0-300 nM. The pre-mixed solutions were added to the ST2-Fc coated plate and incubated for 1 h at room temperature. The binding of biotinylated IL-33 to coated ST2-Fc was detected by the sequential addition of Streptavidin Poly-HRP80 (Fitzgerald; Buckinghamshire, UK) and 3,3′,5,5′-tetramethyl benzidine (TMB) Microwell Peroxidase Substrate System (KPL; Gaithersburg, Md.). The absorbance (450 nm) was recorded using a […] ASCENT® plate reader (Thermo Scientific; Rockford, Ill.). The binding activity (%) of biotin-IL-33 to ST2 in the presence of anti-IL-33 was plotted as a function of antibody concentration. The data generated were fitted to a four-parameter equation to determine IC₅₀ values for each antibody (FIGS. 25A and 25B) using Prism software (Graphpad Software; La Jolla, Calif.). The maximum blocking (%) of each antibody was calculated as the ratio of the reduction in signal measured in the presence of antibody relative to the difference between the signal with IL-33 alone and background measurements.

[2] = target: T2, human IL-33 (R&D Systems, …); test: cell-based or functional assay
[3] = target: T3, cyno IL-33 N-His; test: SPR Biacore T200, 37 C
Procedure: (§1) The binding kinetics of the anti-IL-33 antibody 10C12.38.H6.87Y.58I IgG4 and each anti-IL-33 antibody listed in Table 5 (RG1-RG20) to IL-33 were measured using surface plasmon resonance (SPR) on a BIACORE® T200 instrument (GE Healthcare). Anti-human Fc or anti-murine Fc (GE Healthcare, #BR-1008-39 or BR-1008-38, respectively) was immobilized on a CM5 sensor chip via amine-based coupling according to the manufacturer's protocol. Surfaces were used to capture monoclonal human IgG4 and monoclonal murine IgGs for kinetic studies. Antibody binding was measured to human IL-33 (R&D systems, #3625-IL-010/CF) and cyno IL-33 N-His (SEQ ID NO: 317) (Genentech, Inc.). A three-fold concentration series of cytokine with a range of 3.7 to 100 nM was used for the experiments. Sensograms for binding of IL-33 were recorded using an injection time of 4 min with a flow rate of 30 μl/minute with a running buffer of 0.01 M N-(2-Acetamido)iminodiacetic acid (ADA) pH 7.4, 0.15 M NaCl, 3 mM EDTA, and 0.05% TWEEN®-20. After injection, disassociation of the ligand from the antibody was monitored for 10 min in running buffer. The surface was regenerated in between cycles with an injection of 3 M magnesium chloride or Glycine-HCl pH 1.7. All binding experiments were performed at a temperature of 25′C and 37° C. After subtraction of a blank which contained running buffer only, sensograms observed for IL-33 binding to anti-IL-33 antibodies were analyzed using a 1:1 Langmuir binding model with software supplied by the manufacturer to calculate the kinetics and binding constants, including the dissociation constant (KD). Dissociative half-lives (t_{1/2}) were calculated from the kinetic rate constants. KD (M)=koff/kₒₙ and t_{1/2} (min)=ln(2)/(60*koff). […] In Tables 6-9, *IC indicates the result is inconclusive due to weak capture of antibody was observed, leading to poor binding data.

[4] = target: T2, human IL-33 (R&D Systems, …); test: SPR Biacore T200, 37 C
Procedure: as §1

[5] = target: T2, human IL-33 (R&D Systems, …); test: cell-based or functional assay; remark: listed apart in the source
[6] = target: T3, cyno IL-33 N-His; test: SPR Biacore T200, 25 C
Procedure: as §1

[7] = target: T2, human IL-33 (R&D Systems, …); test: SPR Biacore T200, 25 C
Procedure: as §1

[8] = target: T2, human IL-33 (R&D Systems, …); test: cell-based or functional assay; remark: listed apart in the source
[9] = target: T2, human IL-33 (R&D Systems, …); test: cell-based or functional assay; remark: listed apart in the source

IC50 [1] [nM]	Maximum Blocking [1] [%]	Ph-p38 MFI at 0.4 nM Ab (500 pM human IL-33, primary basophils) [2] [MFI]	Kd [3] [nM]	koff [3] [s⁻¹]	kon [3] [M⁻¹ s⁻¹]	t1/2 [3] [min]	Kd [4] [nM]	koff [4] [s⁻¹]	kon [4] [M⁻¹ s⁻¹]	t1/2 [4] [min]	Ph-p38 MFI at 2 nM Ab (500 pM human IL-33, primary basophils) [5] [MFI]	Kd [6] [nM]	koff [6] [s⁻¹]	kon [6] [M⁻¹ s⁻¹]	t1/2 [6] [min]	Kd [7] [nM]	koff [7] [s⁻¹]	kon [7] [M⁻¹ s⁻¹]	t1/2 [7] [min]	further results	Binder
4.1	75	90	8.33	0.00193	232000	6	2.37	0.000888	374000	13	100	3.76	0.000458	122000	25	0.811	0.000184	226000	63	IC50; SEAP reporter (OD 620), HEK-BLUE IL-33/IL-1beta cells, 10 pM hIL-33 [8]: 9.5e-09 M	H1M9559N (antibody, IgG1, V domains shown, also called RG1) VH: QVQLVESGGGVVQPGRSLRLSCAASGFTFSSYGMHWVRQAPGKGLEWVAVIWYDGRNKYYTDSVKGRFTISRDNSKNTLYLQMDSLRAEDTAVYYCARERYISSYYGGFDPWGQGALVTVSS VL: DIQMTQSPSSVSASVGDRVTITCRASQGISSWLAWYQQKPGKAPKVLIYAASSLQSGVPSRFSGSGSGTDFTLTISSLQPEDFATYYCQQANSFPFTFGPGTKLDIK
1.1	68	149	42.7	0.0113	265000	1	0.726	0.000845	1.16e+06	14	142	14.9	0.00337	227000	3	0.941	0.000462	491000	25	IC50; IFN-gamma ELISA, primary human NK cells, 260 pM hIL-33 + IL-12 [9]: 4.1e-08 M; IC50; SEAP reporter (OD 620), HEK-BLUE IL-33/IL-1beta cells, 10 pM hIL-33 [8]: 3.7e-09 M	H4H9633P (antibody, IgG4, V domains shown, also called RG5) VH: EVQLVESGGGLVQPGGSLRLSCAASGFTFSSYVMSWVRQAPGKGLEWVSSISGNGGSTNYADSVKGRFTISRDNSKNTLFLEMNSLRAEDTAVYYCAKSLGTTTTFLGFDYWGQGTLVTVSS VL: DIQMTQSPSSVSASVGDRVTITCRASQGISSWLAWYQQKPGKAPKLLIYAASSLQSGVPSRFSGSGSGTYFTLTISSLQPEDFATYYCQQANSFPLTFGGGTKVEIK
0.099	27	119	2.54	0.000469	185000	25	4.04	0.000522	129000	22	146	0.656	7.66e-05	117000	151	0.798	7.73e-05	96900	149	IC50; SEAP reporter (OD 620), HEK-BLUE IL-33/IL-1beta cells, 10 pM hIL-33 [8]: 1.7e-08 M	H1M9566N (antibody, IgG1, V domains shown, also called RG2) VH: EVQLLESGGDLVQPGGSLRLSCAASGFTFSSYAMSWVRQAPGKGLEWVSVISGSGSSTDYADSVKGRFTISRDNSRDTLHLQMNSLRAEDTAVYYCAKTFYYFYGLDVWGQGTTVTVSS VL: DIQMTQSPSSLSASLRDRVTITCRASQGISNYLAWYQQKPGKVPKVLIYAASTLQSGVPSRFSGSGSGTVFTLTISSLQTEDVATYYCQKYSSAPFTFGPGTKVDIK
